Data as given in article PMC5780253 (Biochimica et biophysica acta, 2017).

Biological target: the molecule itself
Assay: SDS-PAGE and Western blot of cell lysate without cross-linker

B1: human apical sodium-dependent bile acid transporter, wild type (wt-hASBT) (natural protein, UniProt Q12908 1-348, looked up)
chain: MNDPNSCVDNATVCSGASCVVPESNFNNILSVVLSTVLTILLALVMFSMGCNVEIKKFLGHIKRPWGICVGFLCQFGIMPLTGFILSVAFDILPLQAVVVLIIGCCPGGTASNILAYWVDGDMDLSVSMTTCSTLLALGMMPLCLLIYTKMWVDSGSIVIPYDNIGTSLVSLVVPVSIGMFVNHKWPQKAKIILKIGSIAGAILIVLIAVVGGILYQSAWIIAPKLWIIGTIFPVAGYSLGFLLARIAGLPWYRCRTVAFETGMQNTQLCSTIVQLSFTPEELNVVFTFPLIYSIFQLAFAAIFLGFYVAYKKCHGKNKAEIPESKENGTEPESSFYKANGGFQPDEK
modifications: N-glycosylated at Asn10 (glycosylated ~41 kDa and non-glycosylated ~37 kDa forms both seen)
stoichiometry N: 2
